{"source": "FireProtDB (doi:10.1006/jmbi.1993.1508)", "parents": {"B1": {"name": "Ribonuclease, P00648 (parent)", "chain": "MMKMEGIALKKRLSWISVCLLVLVSAAGMLFSTAAKTETSSHKAHTEAQVINTFDGVADYLQTYHKLPDNYITKSEAQALGWVASKGNLADVAPGKSIGGDIFSNREGKLPGKSGRTWREADINYTSGFRNSDRILYSSDWLIYKTTDHYQTFTKIR"}}, "variants_of": "B1", "details": "Bacillus amyloliquefaciens; pH 6.3; 25 °C; Urea; Fluorescence; MES 50 mM; reversible: yes; structure 1BNI; whole UniProt chain shown", "data": [{"variant": "MMKMEGIALKKRLSWISVCLLVLVSAAGMLFSTAAKTETSSHKAHTEAQVINTFDGVADYLQTYKKLPDNYITKSEAQALGWVASKGNLADVAPGKSIGGDIFSNREGKLPGKSGRTWREADINYTSGFRNSDRILYSSDWLIYKTTDHYQTFTKIR", "values": [{"measurement": "ddG of mutation (higher = less stable)", "value": 0.92, "unit": "kcal/mol"}, {"measurement": "denaturant m value", "value": 2, "unit": "kcal/mol/M"}, {"measurement": "denaturant midpoint (higher = more stable)", "value": 3.9, "unit": "M"}, {"measurement": "unfolding free energy", "value": 7.9, "unit": "kcal/mol"}]}, {"variant": "MMKMEGIALKKRLSWISVCLLVLVSAAGMLFSTAAKTETSSHKAHTEAQVINTFDGVADYLITYHKLPDNYITKSEAQALGWVASKGNLADVAPGKSIGGDIFSNREGKLPGKSGRTWREADINYTSGFRNSDRILYSSDWLIYKTTDHYQTFTKIR", "values": [{"measurement": "ddG of mutation (higher = less stable)", "value": -1.38, "unit": "kcal/mol"}, {"measurement": "denaturant m value", "value": 2.02, "unit": "kcal/mol/M"}, {"measurement": "denaturant midpoint (higher = more stable)", "value": 5, "unit": "M"}, {"measurement": "unfolding free energy", "value": 10.2, "unit": "kcal/mol"}]}, {"variant": "MMKMEGIALKKRLSWISVCLLVLVSAAGMLFSTAAKTETSSHKAHTEAQVINTFDGVADYLQTYHKLPDNYITKSEAQALGWVASKGNLADVAPGKSIGGDIFSNREGKLPGKSGRTWREADINYTSGFRNSDRILYSSDWLIYKTTDHYATFTKIR", "values": [{"measurement": "ddG of mutation (higher = less stable)", "value": 0.02, "unit": "kcal/mol"}, {"measurement": "denaturant m value", "value": 1.98, "unit": "kcal/mol/M"}, {"measurement": "denaturant midpoint (higher = more stable)", "value": 4.4, "unit": "M"}, {"measurement": "unfolding free energy", "value": 8.8, "unit": "kcal/mol"}]}, {"variant": "MMKMEGIALKKRLSWISVCLLVLVSAAGMLFSTAAKTETSSHKAHTEAQVINTFDGVADYLQTYHKLPDNYITKSEAQALGWVASKGNLADVAPGKSIGGDIFSNREGKLPSKSGRTWREADINYTSGFRNSDRILYSSDWLIYKTTDHYQTFTKIR", "values": [{"measurement": "ddG of mutation (higher = less stable)", "value": -0.98, "unit": "kcal/mol"}, {"measurement": "denaturant m value", "value": 2.03, "unit": "kcal/mol/M"}, {"measurement": "denaturant midpoint (higher = more stable)", "value": 4.8, "unit": "M"}, {"measurement": "unfolding free energy", "value": 9.8, "unit": "kcal/mol"}]}, {"variant": "MMKMEGIALKKRLSWISVCLLVLVSAAGMLFSTAAKTETSSHKAHTEAQVINTFDGVADYLQTYHKLPDNYITKSEAQALGWVASKGNLADVAPGKSIGGDIFSNREGKLPGKSGRTWREADINYVSGFRNSDRILYSSDWLIYKTTDHYQTFTKIR", "values": [{"measurement": "ddG of mutation (higher = less stable)", "value": -0.18, "unit": "kcal/mol"}, {"measurement": "denaturant m value", "value": 1.91, "unit": "kcal/mol/M"}, {"measurement": "denaturant midpoint (higher = more stable)", "value": 4.7, "unit": "M"}, {"measurement": "unfolding free energy", "value": 9, "unit": "kcal/mol"}]}, {"variant": "MMKMEGIALKKRLSWISVCLLVLVSAAGMLFSTAAKTETSSHKAHTEAQVINTFDGVADYLQTYHKLPDNYITKSEAQALGWVASKGNLADVAPGKSIGGDIFSNREGKLPGKSGRTWREADINYTSGFRNSDRLLYSSDWLIYKTTDHYQTFTKIR", "values": [{"measurement": "ddG of mutation (higher = less stable)", "value": 0.02, "unit": "kcal/mol"}, {"measurement": "denaturant m value", "value": 1.98, "unit": "kcal/mol/M"}, {"measurement": "denaturant midpoint (higher = more stable)", "value": 4.4, "unit": "M"}, {"measurement": "unfolding free energy", "value": 8.8, "unit": "kcal/mol"}]}, {"variant": "MMKMEGIALKKRLSWISVCLLVLVSAAGMLFSTAAKTETSSHKAHTEAQVINTFDGVADYLQTYHKLPDNYITKSEAQALGWVASKGNLADVAPGKSIGGDIFSNREGKLPGKSGRTWREADINYTSGFRNSDRILYSSDWLIYKTTDHYQTFTRIR", "values": [{"measurement": "ddG of mutation (higher = less stable)", "value": -0.78, "unit": "kcal/mol"}, {"measurement": "denaturant m value", "value": 1.91, "unit": "kcal/mol/M"}, {"measurement": "denaturant midpoint (higher = more stable)", "value": 5, "unit": "M"}, {"measurement": "unfolding free energy", "value": 9.6, "unit": "kcal/mol"}]}, {"variant": "MMKMEGIALKKRLSWISVCLLVLVSAAGMLFSTAAKTETSSHKAHTEAQVINTFDGVADYLQTYHKLPDNYITKSEAQALGWVASKGNLADVAPGKSIGGDIFSNREGKLPGASGRTWREADINYTSGFRNSDRILYSSDWLIYKTTDHYQTFTKIR", "values": [{"measurement": "ddG of mutation (higher = less stable)", "value": -0.98, "unit": "kcal/mol"}, {"measurement": "denaturant m value", "value": 2.09, "unit": "kcal/mol/M"}, {"measurement": "denaturant midpoint (higher = more stable)", "value": 4.7, "unit": "M"}, {"measurement": "unfolding free energy", "value": 9.8, "unit": "kcal/mol"}]}, {"variant": "MMKMEGIALKKRLSWISVCLLVLVSAAGMLFSTAAKTETSSHKAHTEAQVINTFDGVADYLQTYHKLPDNYITKSEAQALGWVASKGNLAEVAPGKSIGGDIFSNREGKLPGKSGRTWREADINYTSGFRNSDRILYSSDWLIYKTTDHYQTFTKIR", "values": [{"measurement": "ddG of mutation (higher = less stable)", "value": 0.32, "unit": "kcal/mol"}, {"measurement": "denaturant m value", "value": 1.84, "unit": "kcal/mol/M"}, {"measurement": "denaturant midpoint (higher = more stable)", "value": 4.6, "unit": "M"}, {"measurement": "unfolding free energy", "value": 8.5, "unit": "kcal/mol"}]}, {"variant": "MMKMEGIALKKRLSWISVCLLVLVSAAGMLFSTAAKTETSSHKAHTEAQVINTFDGVADYLQTYHKLPDNYITKSEAQALGWVASKGNLADVAPGKSIGGDVFSNREGKLPGKSGRTWREADINYTSGFRNSDRILYSSDWLIYKTTDHYQTFTKIR", "values": [{"measurement": "ddG of mutation (higher = less stable)", "value": 0.32, "unit": "kcal/mol"}, {"measurement": "denaturant m value", "value": 1.93, "unit": "kcal/mol/M"}, {"measurement": "denaturant midpoint (higher = more stable)", "value": 4.4, "unit": "M"}, {"measurement": "unfolding free energy", "value": 8.5, "unit": "kcal/mol"}]}, {"variant": "MMKMEGIALKKRLSWISVCLLVLVSAAGMLFSTAAKTETSSHKAHTEAQVINTFDGVADYLQTYHKLPDNYITKSEAQALGWVASKGNLADVAPGKSIGGDIFSNREGRLPGKSGRTWREADINYTSGFRNSDRILYSSDWLIYKTTDHYQTFTKIR", "values": [{"measurement": "ddG of mutation (higher = less stable)", "value": 0.02, "unit": "kcal/mol"}, {"measurement": "denaturant m value", "value": 2.04, "unit": "kcal/mol/M"}, {"measurement": "denaturant midpoint (higher = more stable)", "value": 4.3, "unit": "M"}, {"measurement": "unfolding free energy", "value": 8.8, "unit": "kcal/mol"}]}, {"variant": "MMKMEGIALKKRLSWISVCLLVLVSAAGMLFSTAAKTETSSHKAHTEAQVINTFDGVADYLQTYHRLPDNYITKSEAQALGWVASKGNLADVAPGKSIGGDIFSNREGKLPGKSGRTWREADINYTSGFRNSDRILYSSDWLIYKTTDHYQTFTKIR", "values": [{"measurement": "ddG of mutation (higher = less stable)", "value": -0.88, "unit": "kcal/mol"}, {"measurement": "denaturant m value", "value": 2.08, "unit": "kcal/mol/M"}, {"measurement": "denaturant midpoint (higher = more stable)", "value": 4.6, "unit": "M"}, {"measurement": "unfolding free energy", "value": 9.7, "unit": "kcal/mol"}]}, {"variant": "MMKMEGIALKKRLSWISVCLLVLVSAAGMLFSTAAKTETSSHKAHTEAQVINTFDGVADYLIRYHRLPDNYITKSEAQALGWVASKGNLADVAPGKSIGGDIFSNREGKLPGKSGRTWREADINYTSGFRNSDRILYSSDWLIYKTTDHYQTFTKIR", "values": [{"measurement": "ddG of mutation (higher = less stable)", "value": -1.98, "unit": "kcal/mol"}, {"measurement": "denaturant m value", "value": 2, "unit": "kcal/mol/M"}, {"measurement": "denaturant midpoint (higher = more stable)", "value": 5.42, "unit": "M"}, {"measurement": "unfolding free energy", "value": 10.8, "unit": "kcal/mol"}]}, {"variant": "MMKMEGIALKKRLSWISVCLLVLVSAAGMLFSTAAKTETSSHKAHTEAQVINTFDGVADYLQTYHKLPDNYITKSEAQALGWVASKGNLADVAPGKSIGGDIFSNREGKLPGKSGRTWREADINYTSGFRNSDRIVYSSDWLIYKTTDHYQTFTKIR", "values": [{"measurement": "ddG of mutation (higher = less stable)", "value": 0.32, "unit": "kcal/mol"}, {"measurement": "denaturant m value", "value": 1.92, "unit": "kcal/mol/M"}, {"measurement": "denaturant midpoint (higher = more stable)", "value": 4.4, "unit": "M"}, {"measurement": "unfolding free energy", "value": 8.5, "unit": "kcal/mol"}]}, {"variant": "MMKMEGIALKKRLSWISVCLLVLVSAAGMLFSTAAKTETSSHKAHTEAQVINTFDGVADYLQRYHKLPDNYITKSEAQALGWVASKGNLADVAPGKSIGGDIFSNREGKLPGKSGRTWREADINYTSGFRNSDRILYSSDWLIYKTTDHYQTFTKIR", "values": [{"measurement": "ddG of mutation (higher = less stable)", "value": -0.78, "unit": "kcal/mol"}, {"measurement": "denaturant m value", "value": 1.98, "unit": "kcal/mol/M"}, {"measurement": "denaturant midpoint (higher = more stable)", "value": 4.8, "unit": "M"}, {"measurement": "unfolding free energy", "value": 9.6, "unit": "kcal/mol"}]}, {"variant": "MMKMEGIALKKRLSWISVCLLVLVSAAGMLFSTAAKTETSSHKAHTEAQVINTFDGVADYLIRYHRLPDNYITKSEAQALGWVASKGNLADVAPGKSIGGDIFSNREGKLPSASGRTWREADINYTSGFRNSDRILYSSDWLIYKTTDHYQTFTRIR", "values": [{"measurement": "ddG of mutation (higher = less stable)", "value": -2.98, "unit": "kcal/mol"}, {"measurement": "denaturant m value", "value": 1.86, "unit": "kcal/mol/M"}, {"measurement": "denaturant midpoint (higher = more stable)", "value": 6.34, "unit": "M"}, {"measurement": "unfolding free energy", "value": 11.8, "unit": "kcal/mol"}]}, {"variant": "MMKMEGIALKKRLSWISVCLLVLVSAAGMLFSTAAKTETSSHKAHTEAQVINTFDGVADYLQTYHKLPDNYITKSEASALGWVASKGNLADVAPGKSIGGDIFSNREGKLPGKSGRTWREADINYTSGFRNSDRILYSSDWLIYKTTDHYQTFTKIR", "values": [{"measurement": "ddG of mutation (higher = less stable)", "value": -0.28, "unit": "kcal/mol"}, {"measurement": "denaturant m value", "value": 2.05, "unit": "kcal/mol/M"}, {"measurement": "denaturant midpoint (higher = more stable)", "value": 4.4, "unit": "M"}, {"measurement": "unfolding free energy", "value": 9.1, "unit": "kcal/mol"}]}, {"variant": "MMKMEGIALKKRLSWISVCLLVLVSAAGMLFSTAAKTETSSHKAHTEAQVINTFDGVADYLQTYHKLPDNYITKSEAQALGWVASKGNLADVAPGKSIGGDIFSNREGKLPGKSGRTWREADINYTSGFRNADRILYSSDWLIYKTTDHYQTFTKIR", "values": [{"measurement": "ddG of mutation (higher = less stable)", "value": -0.28, "unit": "kcal/mol"}, {"measurement": "denaturant m value", "value": 2.02, "unit": "kcal/mol/M"}, {"measurement": "denaturant midpoint (higher = more stable)", "value": 4.51, "unit": "M"}, {"measurement": "unfolding free energy", "value": 9.1, "unit": "kcal/mol"}]}]}
